# From patent publication US20050277575A1, “Therapeutic compositions and methods for treating diseases that involve angiogenesis” (priority 2004, published 2005)
# “And” between values parts separate entries of the source, which are not always exact repeats. Identical values can stand only once. Like-named read-outs stand apart in the source and are kept apart here. Where a SMILES comes first, the peptide text is derived from it.
# Key:
# [1] = biological target: T1, S100A4 (Homo sapiens, UniProt P26447); test: Modulation of S100A4 dependent tPA-mediated conversion of plasminogen to plasmin by peptides and chimera; assay type: biochemical
# T1 construct: GST (N); made in house; host or cells: E. coli ER2507
# Description: (§1) The effects of peptide SEQ ID 6, peptide SEQ ID 38 and chimera SEQ ID 39 on acceleration oft-PA-mediated conversion of plasminogen to plasmin induced by S100A4 were measured. The kinetics of t-PA-mediated plasminogen activation were determined by measuring the amidolytic activity of plasmin formed during activation of plasminogen. All the experiments were done in 100 μl volume in 96-well plates in triplicates. Glu-plasminogen (Calbiochem) at the concentration of 100 nM was preincubated at 25° C. for 1 h in the presence or absence of 1 μM recombinant S100A4 in a buffer consisting of 50 mM Tris-HCl, pH 7.4, 100 mM NaCl and 5 mM CaCl2 or 5 mM EGTA. In some experiments, different concentrations of peptides or chimera were preincubated together with proteins. The reaction was initiated by addition of 5 nM t-PA (Calbiochem) and 125 μM chromogenic plasmin substrate, Chromozym PL (Roche). The reactions were monitored at 405 nm for 1.5 h in a SPECTRAmax PLUS^384 microplate spectrophotometer (Molecular Devices) under control of the SOFTmax PRO kinetic program (Molecular Devices). The initial rates of plasmin generation, during the first 10-15 min, were calculated using linear regression analysis of plots of A405 nm versus time 2. The initial rates of plasmin generation were reported in units (K) of A405 nm/min^2×10^3. […] The titration data were analyzed with the four-parameter logistic equation K=(A−D)/(1+(x/C)^B)D. If A, asymptotic minimum, =0, this equation is converted to the Michaelis-Menten equation K=D/(1+(C/[S])^B), where [S] is substrate concentration, D=Vmax, C=Km, and B is the Hill coefficient.
# Peptides SEQ ID 6 and SEQ ID 38 inhibited the accelerating effect of S100A4 on t-PA-dependent conversion of plasminogen to plasmin in concentration—dependent manner.
# On the other hand, chimera SEQ ID 39 additionally accelerated plasmin formation already accelerated by S100A4.
# [2] = biological target: T1, S100A4; test: Fluorescence polarization assay of peptide binding with S100A4; details: for change of fluorescence polarization upon adding S100A4: same procedure and conditions as for SEQ ID NO 7
# Description: The following working buffers have been prepared:
# TBS-EGTA: 10 mM TRIS buffer containing 150 mM NaCl, 0.05% bovine serum albumine (BSA), 1 mM EGTA
# TBS-Ca: 10 mM TRIS buffer containing 150 mM NaCl, 0.05% bovine serum albumine (BSA), 1 mM CaCl2
# 10 mM solution of peptide SEQ ID NO 7 in DMSO was diluted with in either TBS-EGTA or TBS-Ca to obtain final peptide concentration 20 nM. Samples of these peptide solutions were placed in 384 well plate (Costar No. 3710), 45 microliters per well. Fluorescence polarization of such samples was determined using Perkin Elmer Wallac EnVision 2100 Multilabel Reader equipped with excitation filter 485 nm and emission filters 535 nm for each channel.
# S100A4 has been diluted by either TBS-EGTA or by TBS-Ca to obtain a series of solutions of such concentrations that after adding 5 microliters each solution to 45 microliter peptide samples the final concentration of S100A4 was one of following: 0, 10, 30, 100, 300, 1000, 3000, or 10000 nM. Each sample was prepared in triplicate. The samples were mixed carefully while adding the protein to the peptide, and then they were incubated for 1 h at room temperature. The fluorescence polarization of the samples was determined using the same conditions as for the peptide samples before adding S100A4, and the change of fluorescence polarization of the peptide SEQ ID NO 7 upon adding S100A4 was calculated individually for each sample. The results, average of triplicates, are presentsd on the FIG. 6. The apparent binding constant of peptide SEQ ID NO 7 binding to S100A4 is 236 nM.
# The same procedure and conditions have been applied to test binding of peptide SEQ ID NO 9, and peptide SEQ ID NO 10, to S100A4.
# [3] = biological target: T2, t-PA-mediated plasminogen activation (Homo sapiens, UniProt P00750); test: t-PA-dependent conversion of plasminogen to plasmin, effect of S100A4 (Example 11); assay type: biochemical; details: with or without 2.5 μM S100A4; for Vmax: 150 nM plasminogen, 5 nM t-PA
# T2 construct: purchased Calbiochem
# Description: Non-active plasminogen can be converted to active protease plasmin by tissue type (t-PA) or urokinase type (u-PA) plasminogen activators. Except for its well-known fibrinolytic activity, plasmin also directly and indirectly, by activation of matrix metalloproteinases (MMPs), participates in the degradation of extracellular matrix that is important for the angiogenesis and tumor invasion. The kinetics of t-PA-mediated plasminogen activation was determined by measuring amidolytic activity of the plasmin generated during plasminogen activation. The reaction was performed with the plasmin substrate Chromozyme PL, tosyl-glycyl-prolyl-lysin-4-nitranilide-acetate (Roche) in the final concentration of 125 μM in a buffer consisting of 50 mM Tris-HCl, pH 7.4, 100 mM NaCl, 5 mM of CaCl2 or 5 mM of EGTA, and 150 nM of [Glu] plasminogen (Calbiochem). The reaction was preincubated with or without 2.5 μM S100A4 at 24 C° for 1 h in 96-well plates. The reaction was initiated by addition of t-PA (Calbiochem) up to 5 nM concentration, final volume 100 μl. Kinetic of substrate hydrolysis was measured at 2 min intervals at 405 nm in Spectramax Plus 384 spectrophotometer (Molecular Devices). Analysis of kinetics curves (Vmax, time to Vmax, and initial slope of kinetic data converted to A405 versus time^2) was performed with the help of Softmax PRO program (Molecular Devices).
# Kinetics of plasminogen to plasmin conversion consists of three parts. As shown in FIG. #3 curves 1 and 2 for t-PA, during first 1500 s the reaction is second order that corresponds to conversion of plasminogen to plasmin and consequent cleavage of chromogenic substrate by plasmin. The second part of reaction is linear, for which Vmax can be calculated. It starts after total conversion of plasminogen to plasmin and corresponds to cleavage of chromogenic substrate by plasmin with constant rate. In the third part of reaction, after 2700 s, the reaction is slowing down that corresponds to depletion of chromogenic substrate and finally the reaction reaches a plateau when all substrate is cleaved. As follows from the comparison of curves 1 and 2, t-PA along converted plasminogen to plasmin equally efficiently in the presence or absence of calcium. Neither conversion of plasminogen to plasmin took place in the absence of t-PA no S110A4 induced such conversion by itself, curves 5 and 6. In the presence of S100A4 linear part of reaction starts substantially earlier, which means that total conversion of plasminogen to plasmin was accelerated. Kinetic parameters for t-PA along and for combination of t-PA with S100A4 are represented in Table 4. […] S100A4 accelerated conversion of plasminogen to plasmin in calcium independent manner, curves 3 and 4.
# [4] = biological target: T2, t-PA-mediated plasminogen activation; test: t-PA-mediated plasminogen conversion kinetics with and without S100A4 (Example 12); assay type: biochemical
# Description: as §1
# The addition of S100A4 to basal reaction (t-PA plus plasminogen) produced a significant increase in the plasminogen conversion rate. […] The stimulation of the plasminogen conversion by S100A4 was concentration-dependent with the half-maximal effect at 2.4 μM.
# The kinetic parameters of t-PA-mediated plasminogen conversion were evaluated in the presence and absence of S100A4 as a function of plasminogen concentrations ranging from 3 nM to 3 μM.
# T2 sequence (P00750 36-562): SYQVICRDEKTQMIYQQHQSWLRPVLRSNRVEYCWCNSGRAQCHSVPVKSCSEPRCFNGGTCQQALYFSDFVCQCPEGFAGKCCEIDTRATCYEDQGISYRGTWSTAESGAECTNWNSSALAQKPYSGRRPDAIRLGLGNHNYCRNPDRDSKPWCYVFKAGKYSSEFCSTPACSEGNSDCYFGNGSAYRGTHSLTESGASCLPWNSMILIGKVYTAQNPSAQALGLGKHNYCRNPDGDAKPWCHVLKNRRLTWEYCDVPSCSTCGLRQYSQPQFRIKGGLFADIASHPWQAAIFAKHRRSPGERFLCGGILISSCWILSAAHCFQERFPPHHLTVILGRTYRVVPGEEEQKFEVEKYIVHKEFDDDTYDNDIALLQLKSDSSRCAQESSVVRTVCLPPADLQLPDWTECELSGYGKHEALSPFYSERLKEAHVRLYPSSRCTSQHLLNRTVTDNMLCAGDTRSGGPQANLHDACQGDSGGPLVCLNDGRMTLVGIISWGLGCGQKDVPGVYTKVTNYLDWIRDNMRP
# T1 sequence (P26447 whole entry): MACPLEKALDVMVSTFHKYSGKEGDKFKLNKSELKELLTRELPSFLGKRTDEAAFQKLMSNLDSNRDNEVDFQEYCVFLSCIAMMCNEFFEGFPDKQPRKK
molecule,measurement,setting,value
"CSCC[C@@H](NC(=O)[C@@H](CCC(=O)O)NC(=O)[C@@H](CCCNC(=N)N)NC(=O)[C@@H](Cc1c[nH]c2ccccc12)NC(=O)CNC(=O)[C@@H](C)NC(C)=O)C(=O)N[C@H](Cc1ccc(O)cc1)C(=O)N[C@H](CO)C(=O)N[C@H](C)C(=O)N[C@H](CC(C)C)C(=O)N[C@H](CO)C(=O)N[C@@H](C)C(=O)N[C@@H](CO)C(=O)N[C@H](Cc1ccc(O)cc1)C(=O)N[C@@H](C(=O)N[C@H](CCC(=O)O)C(=O)N[C@H](CCCNC(=N)N)C(=O)N[C@H](CC(C)C)C(N)=O)C(C)C [SEQ ID 38, Ac-aGwremysalsASyverl-amide] (HELM PEPTIDE1{[ac].[dA].G.[dW].[dR].[dE].[dM].[dY].[dS].[dA].[dL].[dS].A.S.[dY].[dV].[dE].[dR].[dL].[am]}$$$$V2.0)",effect on S100A4 acceleration at 15 μM peptide,[1]; 15 μM peptide,totally neglected the effect of S100A4
same,IC50,"[1]; peptides titrated 0.1-100 μM, 1 μM S100A4, read-out: IC50 for inhibition of accelerating effect of S100A4 on t-PA-dependent conversion of plasminogen to plasmin",3.5 µM
Fam-aGlrevyGASlASymerw-amide [SEQ ID NO 9],change of fluorescence polarization upon adding S100A4,[2],No change of fluorescence polarization has been detected
"CSCC[C@H](NC(=O)[C@H](Cc1ccc(O)cc1)NC(=O)[C@H](CO)NC(=O)[C@H](C)NC(=O)[C@H](CC(C)C)NC(=O)[C@H](CO)NC(=O)[C@H](C)NC(=O)CNC(=O)[C@H](Cc1ccc(O)cc1)NC(=O)[C@@H](NC(=O)[C@H](CCC(=O)O)NC(=O)[C@H](CCCNC(=N)N)NC(=O)[C@H](CC(C)C)NC(=O)CNC(=O)[C@H](C)NC(=O)c1ccc2c(c1)C(=O)OC21c2ccc(O)cc2Oc2cc(O)ccc21)C(C)C)C(=O)N[C@@H](CCC(=O)O)C(=O)N[C@@H](CCCNC(=N)N)C(=O)N[C@@H](Cc1c[nH]c2ccccc12)C(N)=O [SEQ ID NO 7, Fam-AGLREVYGASLASYMERW-amide] (HELM PEPTIDE1{[O=C1OC2(c3ccc(O)cc3Oc3cc(O)ccc32)c2ccc(C(=O)[*:2])cc21].A.G.L.R.E.V.Y.G.A.S.L.A.S.Y.M.E.R.W.[am]}$$$$V2.0)",Kd,"[2]; 20 nM peptide, S100A4 0-10000 nM, 1 h room temperature, TBS-EGTA or TBS-Ca, read-out: apparent binding constant of peptide binding to S100A4",0.236 µM
Fam-aGwremysalsASyverl-amide [SEQ ID NO 10],change of fluorescence polarization upon adding S100A4,[2],No change of fluorescence polarization has been detected
t-PA: tissue type plasminogen activator (Calbiochem); basal reaction with plasminogen,Vmax,[3]; Ca (5 mM CaCl2),7.152 ± 0.130 ΔA405/t(min) * 1000
same,Slope (initial rate of plasmin generation),[3]; Ca (5 mM CaCl2),0.078 ΔA405/t^2(min^2) * 1000 and 0.078 ± 0.007 ΔA405/t^2(min^2) * 1000
same,Time to Vmax,[3]; Ca (5 mM CaCl2),2200 s and 2200 ± 69 s
same,Vmax,[3]; EGTA (5 mM),8.589 ± 0.342 ΔA405/t(min) * 1000
same,Slope (initial rate of plasmin generation),[3]; EGTA (5 mM),0.080 ± 0.008 ΔA405/t^2(min^2) * 1000
same,Time to Vmax,[3]; EGTA (5 mM),2102 ± 69 s
same,Vmax,"[4]; plasminogen 3 nM to 3 μM, presence of EGTA",1.18
same,Km,"[4]; plasminogen 3 nM to 3 μM, presence of EGTA, read-out: Km",0.429 µM
same,Km,"[4]; plasminogen 3 nM to 3 μM, read-out: Km of the t-PA-mediated plasminogen conversion",0.429 µM
same,Increase in t-PA activity,[4]; presence of EGTA,1
